Patent publication US20110182905A1

Biological target: purified hGM-CSF (Biomol #2514, expressed in E. coli) (human) (UniProt P04141)
Experiment: cell-based or functional assay

Chain of purified hGM-CSF (Biomol #2514, expressed in E. coli) (human) (P04141 18-144 limits assumed): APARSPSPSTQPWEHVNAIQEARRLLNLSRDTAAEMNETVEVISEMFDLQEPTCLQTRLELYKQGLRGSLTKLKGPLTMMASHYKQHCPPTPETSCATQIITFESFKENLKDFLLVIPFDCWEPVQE

- TF-1 assay hGM-CSF (E. coli) [pM], GM-CSF final concentration 1.0 ng/ml: 8260 pM
Substance: rat-anti-human-GM-CSF IgG2a BVD2-21C11 (BD #554503) (antibody)
